Source: US9297028B2, “Fermentive production of four carbon alcohols” (Butamax Advanced Biofuels LLC, priority 2005, dated 2016)

Tests used:
[1] = Acetoacetyl-CoA thiolase activity in cell free extracts (decrease in absorbance at 303 nm); assay type: biochemical
Description: Acetoacetyl-CoA thiolase activity in the cell free extracts was measured as degradation of a Mg^2+-acetoacetyl-CoA complex by monitoring the decrease in absorbance at 303 nm. Standard assay conditions were 100 mM Tris-HCl pH 8.0, 1 mM DTT (dithiothreitol) and 10 mM MgCl2. The cocktail was equilibrated for 5 min at 37° C.; then the cell-free extract was added. The reaction was initiated with the addition of 0.05 mM acetoacetyl-CoA plus 0.2 mM CoA. Protein concentration was measured by either the Bradford method or by the Bicinchoninic Kit (Sigma, catalog no. BCA-1). Bovine serum albumin (Bio-Rad, Hercules, Calif.) was used as the standard in both cases. In one typical assay, the specific activity of the ThlA protein in the induced culture was determined to be 16.0 μmol mg^−1 min^−1 compared to 0.27 μmol mg^−1 min^−1 in the uninduced culture.
(§1) For enzyme activity analysis, a single colony of each strain was streaked onto a fresh plate containing SD minimal drop out medium and incubated at 30° C. for 2 days. The cells on this plate were used to inoculate 20 mL of SD drop out medium and in a 125 mL shake flask and grown overnight at 30° C., with shaking at 250 rpm. The optical density (OD600) of the overnight culture was measured, and the culture was diluted to an OD600=0.1 in 250 mL of the same medium in a 1.0 L shake flask, and grown at 30° C. with shaking at 250 rpm to an OD600 of between 0.8 to 1.0. The cells were then harvested by centrifugation at 2000×g for 10 min, and resuspended in 20 mL of 50 mM Tris-HCl buffer, pH 8.5. Enzyme assays were performed as described above.

[2] = Hydroxybutyryl-CoA dehydrogenase activity (rate of oxidation of NADH, absorbance at 340 nm); assay type: biochemical
Description: Hydroxybutyryl-CoA dehydrogenase activity was determined by measuring the rate of oxidation of NADH as measured by the decrease in absorbance at 340 nm. A standard assay mixture contained 50 mM MOPS, pH 7.0, 1 mM DTT and 0.2 mM NADH. The cocktail was equilibrated for 5 min at 37° C. and then the cell free extract was added. Reactions were initiated by addition of the substrate, 0.1 mM acetoacetyl-CoA. In one typical assay, the specific activity of the BHBD protein in the induced culture was determined to be 57.4 μmol mg^−1 min^−1 compared to 0.885 μmol mg^−1 min^−1 in the uninduced culture.
as §1

[3] = yeast strain DPD5200 (BY4743/pNY103), standard conditions
[4] = yeast strain DPD5206 (BY4741/pNY102)

Hbd activity ([2]; yeast strain BY4741 (pNY6), in words) | Substance | ThlA activity ([1]; yeast BY4741 containing pNY10 (thlA with one base deletion, truncated protein), in words) | ThlA activity ([1]; yeast BY4741 transformed with pNY12 (FBA1 promoter)) [U/mg] | ThlA enzyme activity [1, 3] [U/mg] | ThlA activity [1, 4] [U/mg] | Hbd activity ([2]; yeast BY4741 containing pNY10, hbd under GPD promoter) [U/mg] | Hbd enzyme activity [2, 3] [U/mg] | Hbd activity [2, 4] [U/mg] | Hbd activity ([2]; yeast, GALL promoter controlled hbd) [U/mg]
 | ThlA: acetyl-CoA acetyltransferase encoded by thlA from C. acetobutylicum ATCC 824, SEQ ID NO:2 | no ThlA activity | 1.66 | 0.49 | 1.24 |  |  |  | 
good | BHBD: 3-hydroxybutyryl-CoA dehydrogenase encoded by hbd from C. acetobutylicum ATCC 824, SEQ ID NO:6 |  |  |  |  | 1.8 | 0.21 | 0.76 | 0.40
